Test results reported in article PMC11001878, “Engineering an artificial catch bond using mechanical anisotropy” (Nature Communications, 2024).

What was measured:
[1] = biological target: ybbr-ELP-FLN-DocG (Ruminococcus champanellensis); experiment: AFM single-molecule force spectroscopy; constant pulling speed (100, 400, 800, 3200 nm/s); both partners tethered through ybbr tags, CohE on the cantilever and DocG on the glass; dwell 200 ms; TBS Ca buffer (25 mM Tris, 72 mM NaCl, 1 mM CaCl2, pH 7.2); zero-force off rate k0 from a Bell-Evans fit, one for each unbinding pathway
[2] = biological target: DocG-FLN-ELP-ybbr (Ruminococcus champanellensis); experiment: as above
[3] = biological target: T1, DocG A77C mutant protein labeled with Cy3b (Ruminococcus champanellensis, A77C, Cy3b (maleimide-conjugated) on the cysteine at 77); experiment: MST; 20 nM Cy3b-labelled DocG A77C mixed with a series of CohE, 16 samples, 0.0763 nM to 2.5 µM; Nanotemper Monolith NT.115; conditions: both partners purified
T1 chain: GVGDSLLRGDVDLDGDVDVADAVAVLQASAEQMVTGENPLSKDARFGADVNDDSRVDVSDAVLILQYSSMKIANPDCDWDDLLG

CohE-FLN-ELP-ybbr (domain or fragment)
log(k0), high force pathway [1]: -7 | log(k0), low force pathway [1]: -9 | log(k0), high force pathway [2]: -7 | log(k0), low force pathway [2]: -31

ybbr-ELP-FLN-CohE (domain or fragment)
log(k0), single pathway [1]: -4.2

B1: CohE wild-type (domain or fragment)
chain: LSMDQKFAEPGETVEIALNLENFDASWTGLEFLVNYDPKLEVALDGAGDIDYSYGDAIGAMGKKISVGGAISKDLTADGLKGFAFAWGTATAISGNGQLGVFKFTVPADAQPGDEFPVNLTVNVGSFIDANKENIPFETVNGWIKI
Kd [3]: 14 ± 4 nM

B2: CohE F13AzF-Fgβ (domain or fragment)
chain 1: B1 chain
chain 2: NEEGFFSARGHRPLDGSWSHPQFEKGSGSC
modifications: azido-phenylalanine (AzF) at 13, covalently conjugated by the azide-DBCO click reaction with the Fgβ-StrepTag-DBCO peptide | C-terminal cysteine bearing DBCO, linked to the azide of AzF13 of the CohE chain
Kd [3]: 40 ± 8 nM

B3: CohE K87AzF-Fgβ (domain or fragment)
chain 1: B1 chain
chain 2: B2 chain 2
modifications: azido-phenylalanine (AzF) at 87, covalently conjugated by the azide-DBCO click reaction with the Fgβ-StrepTag-DBCO peptide | C-terminal cysteine bearing DBCO, linked to the azide of AzF87 of the CohE chain
Kd [3]: 19 ± 10 nM
